Here are results for 1 molecule from patent US20070286806A1, “Methods and Compositions for Modulating a Steroid Receptor” (Mount Sinai Hospital, priority 2004, published 2007).

Type in all cases: cell-based
The subject of one assay is PR protein. The assay is described as follows: PR protein levels on over-expression of PSF in 293T cells. To be noted: over-expression in 293T cells.
The target of the next assay is T1, ERβ (Homo sapiens, UniProt Q92731).
T1 construct: expressed in transfected cells; host or cells: SHM (Syrian hamster myocyte) cells
T1 sequence (Q92731 whole entry, species assumed): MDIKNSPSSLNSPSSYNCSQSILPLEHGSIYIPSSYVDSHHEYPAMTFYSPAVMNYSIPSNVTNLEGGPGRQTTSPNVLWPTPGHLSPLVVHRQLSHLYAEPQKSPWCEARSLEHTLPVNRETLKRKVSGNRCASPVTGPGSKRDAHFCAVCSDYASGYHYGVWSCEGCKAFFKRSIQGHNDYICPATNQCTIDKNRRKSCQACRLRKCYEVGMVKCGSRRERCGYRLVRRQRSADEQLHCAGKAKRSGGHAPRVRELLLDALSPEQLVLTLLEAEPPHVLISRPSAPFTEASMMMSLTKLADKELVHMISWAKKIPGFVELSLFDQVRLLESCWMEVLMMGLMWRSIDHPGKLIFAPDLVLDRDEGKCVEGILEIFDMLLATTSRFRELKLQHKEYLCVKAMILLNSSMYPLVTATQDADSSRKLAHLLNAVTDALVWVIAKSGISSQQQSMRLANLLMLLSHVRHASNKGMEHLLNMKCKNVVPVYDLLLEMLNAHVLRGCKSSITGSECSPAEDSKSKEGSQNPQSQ
The assay is described as follows: ERβ transactivation, 3xERE luciferase reporter in SHM cells. To be noted: 3xERE promoter. The procedure:
(§1) FIG. 4. PSF inhibit transactivation of PR but not estrogen receptor (ER). (A) SHM cells were transient cotransfected with PRA or PRB expression vectors with or without increasing dose (0.05, 0.1 and 0.2 μg) of His-PSF, together with 3×PRE (upper) or MMTV (lower) luciferase reporter vector. Four hours after transfection, culture medium was replaced with fresh DMEM containing 10 nM progesterone and the incubation continued for at least 30 hours. (B) SHM cells were transiently cotransfected with ERα or ERβ expression vector with (0.2 μg) or without His-PSF, together with 3×ERE luciferase reporter vector. Four hours after transfection, culture medium was replaced with fresh DMEM with (solid bar) or without (empty bar) 10 nM estrodial and incubation continued for at least 30 hours. Luciferase activity was measured and normalized by β-galatosidase activity. […]
(§2) For immunoprecipitation of the endogenous PR and PSF, T47D cells cultured in 150 mm dishes were lysed in 800 μl NETN buffer containing 150 mM NaCl plus protease inhibitor cocktail. […] Gels were treated with Enhancer (NEN, Boston, US) dried and analyzed by autoradiography. • Cell culture and transient transfection: SHM cells and 293T cells were maintained in DMEM plus 5% FCS (Sigma) as described before (22). […] Luciferase activity was determined by using the luciferin reagent (Promega) according to manufacture's protocol. […]
Background: Reporter assays use an easily measured gene product as a stand-in for the process of interest.

In the next assay the target is T2, PRA (Homo sapiens, UniProt P06401).
T2 construct: expressed in transfected cells; host or cells: SHM (Syrian hamster myocyte) cells
T2 sequence (P06401 1-769 isoform P06401-2): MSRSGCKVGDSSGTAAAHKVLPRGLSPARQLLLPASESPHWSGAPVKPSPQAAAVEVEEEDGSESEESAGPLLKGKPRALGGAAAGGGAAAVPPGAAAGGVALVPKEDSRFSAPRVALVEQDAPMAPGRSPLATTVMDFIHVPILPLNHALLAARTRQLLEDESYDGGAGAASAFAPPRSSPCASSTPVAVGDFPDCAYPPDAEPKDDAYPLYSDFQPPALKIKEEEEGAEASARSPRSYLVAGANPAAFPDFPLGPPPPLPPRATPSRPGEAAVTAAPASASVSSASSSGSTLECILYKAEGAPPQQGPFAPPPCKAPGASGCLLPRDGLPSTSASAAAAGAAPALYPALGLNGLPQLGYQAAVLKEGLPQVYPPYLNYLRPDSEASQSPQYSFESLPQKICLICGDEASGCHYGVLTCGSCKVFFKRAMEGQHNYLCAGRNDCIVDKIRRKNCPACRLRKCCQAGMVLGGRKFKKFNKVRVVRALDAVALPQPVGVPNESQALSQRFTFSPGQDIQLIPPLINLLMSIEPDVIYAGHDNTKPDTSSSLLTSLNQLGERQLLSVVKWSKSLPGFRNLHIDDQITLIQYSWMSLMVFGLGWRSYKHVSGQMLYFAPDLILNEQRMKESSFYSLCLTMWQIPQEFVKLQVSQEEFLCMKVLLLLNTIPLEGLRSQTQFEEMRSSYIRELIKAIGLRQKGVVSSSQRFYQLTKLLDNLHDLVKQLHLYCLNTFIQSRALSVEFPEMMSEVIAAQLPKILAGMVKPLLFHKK
Kind of assay: Transactivation of progesterone responsive promoters (3xPRE-Luc, MMTV-Luc) by PRA in SHM cells. To be noted: 10 nM progesterone, increasing dose of His-PSF vector. The procedure:
as §1, §2

B1: polypyrimidine tract binding protein-associated splicing factor (protein)
chain: MSRDRFRSRGGGGGGFHRRGGGGGRGGLHDFRSPPPGMGLNQNRGPMGPGPGQSGPKPPIPPPPPHQQQQQPPPQQPPPQQPPPHQPPPHPQPHQQQQPPPPPQDSSKPVVAQGPGPAPGVGSAPPASSSAPPATPPTSGAPPGSGPGPTPTPPPAVTSAPPGAPPPTPPSSGVPTTPPQAGGPPPPPAAVPGPGPGPKQGPGPGGPKGGKMPGGPKPGGGPGLSTPGGHPKPPHRGGGEPRGGRQHHPPYHQQHHQGPPPGGPGGRSEEKISDSEGFKANLSLLRRPGEKTYTQRCRLFVGNLPADITEDEFKRLFAKYGEPGEVFINKGKGFGFIKLESRALAEIAKAELDDTPMRGRQLRVRFATHAAALSVRNLSPYVSNELLEEAFSQFGPIERAVVIVDDRGRSTGKGIVEFASKPAARKAFERCSEGVFLLTTTPRPVIVEPLEQLDDEDGLPEKLAQKNPMYQKERETPPRFAQHGTFEYEYSQRWKSLDEMEKQQREQVEKNMKDAKDKLESEMEDAYHEHQANLLRQDLMRRQEELRRMEELHNQEMQKRKEMQLRQEEERRRREEEMMIRQREMEEQMRRQREESYSRMGYMDPRERDMRMGGGGAMNMGDPYGSGGQKFPPLGGGGGIGYEANPGVPPATMSGSMMGSDMRTERFGQGGAGPVGGQGPRGMGPGTPAGYGRGREEYEGPNKKPRF
notes: expressed from transfected His-PSF vector or in vitro translated
As for B1, the PR protein levels result with PR protein was “reduced PR protein levels”. In addition, in the assay with ERβ, the “inhibitory effects on ERβ” value is on record as “not observed”. Besides, the “PRA transactivation of MMTV and 3xPRE promoters” value in the assay with PRA was “potently inhibited”.
